Source: patent US11608490B2, “Composition for enhancing hair growth-inducing ability of adipose stem cells comprising udenafil as active ingredient” (INDUSTRY-ACADEMIC COOPERATION FOUNDATION, YONSEI UNIVERSITY, priority 2018, dated 2023)

B1: IL-12B peptide: cytokine whose expression is increased in udenafil-treated adipose stem cells; called IL-12B peptide, synthetic peptide of IL-12B, IL-12B protein (protein, UniProt P29460 23-328, looked up)
Interleukin-12 subunit beta: IWELKKDVYVVELDWYPDAPGEMVVLTCDTPEEDGITWTLDQSSEVLGSGKTLTIQVKEFGDAGQYTCHKGGEVLSHSLLLLHKKEDGIWSTDILKDQKEPKNKTFLRCEAKNYSGRFTCWWLTTISTDLTFSVKSSRGSSDPQGVTCGAATLSAERVRGDNKEYEYSVECQEDSACPAAEESLPIEVMVDAVHKLKYENYTSSFFIRDIIKPDPPKNLQLKPLKNSRQVEVSWEYPDTWSTPHSYFSLTFCVQVQGKSKREKKDRVFTDKTSATVICRKNASISVRAQDRYYSSSWSEWASVPCS
B2: IL-4 peptide: cytokine whose expression is increased in udenafil-treated adipose stem cells; called IL-4 peptide, synthetic peptide of IL-4, IL-4 protein (protein, UniProt P05112 25-153, looked up)
Interleukin-4: HKCDITLQEIIKTLNSLTEQKTLCTELTVTDIFAASKNTTEKETFCRAATVLRQFYSHHEKDTRCLGATAQQFHRHKQLIRFLKRLDRNLWGLAGLNSCPVKEANQSTLENFLERLKTIMREKYSKCSS

Columns and labels:
[1] = tested on: IL-12B mRNA; assay: qPCR of IL-12B expression level in udenafil-treated adipose stem cells; assay type: cell-based; settings: adipose stem cells treated with 1 μM udenafil for 3 to 4 days, versus non-udenafil-treated adipose stem cells (Control); FIG. 3
Procedure: (§1) First, adipose stem cells were preconditioned with udenafil to prepare stimulated adipose stem cells. Adipose stem cells were inoculated on a […] and cultured. The following day, 1 μM udenafil was added to the culture medium and additional culture was performed for 3 to 4 days. Subsequently, adherent cultured adipose stem cells were detached with trypsin, and then obtained by centrifugation. The obtained adipose stem cells were prepared by being mixed with 100 μl of PBS.
(§2) Specifically, as performed in Example <1-1>, adipose stem cells were treated with udenafil and cultured. After completion of the culture, the cells were obtained and RNA was extracted from the cells by treatment with TRIZOL™ (Invitrogen, NY, USA). Using the extracted RNA as a template, cDNA was synthesized through RT-PCR using oligodT and HELIXCRIPT™ Thermo Reverse Transcription System (NANOHELIX, WI, USA). The synthesized cDNA and BrightGreen qPCR master mix-ROX (abm, NY, US) were added to 96-well qPCR assay Kit for identifying growth factors [RT^2 First Strand (DNA Synthesis Kit (QIAGEN, MD, USA)], to perform a qPCR reaction. The results obtained by performing the qPCR reaction were analyzed using a program which corresponds to the RT^2 First Strand cDNA Synthesis Kit and is provided by QIAGEN, and IL-4 and IL-12B expression levels in the udenafil-treated adipose stem cells were respectively identified.

[2] = tested on: human adipose stem cells; assay: Scratch wound-healing assay; assay type: cell-based; settings: for migration of the adipose stem cells, scratch wound-healing assay: IL-4 or IL-12B in serum-free medium for 3 days, FIG. 7 (B to E)
Procedure: (§3) Human adipose stem cells were isolated via liposuction of subcutaneous fat, as described in a previous study: Briefly, the fat was washed with phosphate-buffered saline (PBS), 0.075% collagenase was added, and the mixture was incubated for 45 minutes at 37° C. with gentle shaking. After centrifugation, the pellet was filtered through a 100 am nylon mesh. Then, the cells were cultured with an essential medium containing alpha Minimum Essential Medium (α-MEM) (Hyclone, Logan, Utah, USA), 10% fetal bovine serum (FBS) (Gibco, Carlsbad, Calif., USA), and 1% antibiotics (Gibco) for three passages. Then, the medium was changed to contain α-MEM, 10% FBS, and 1% penicillin/streptomycin (Gibco), and the cells were cultured for four passages. The adipose stem cells at passages 5 to 7 were used for all experiments. Characterization of the adipose stem cells was performed using flow cytometry. The adipose stem cells were positive for CD44, CD73, CD90, CD105, human leukocyte antigen (HLA)-I, and podocalyxin-like protein (PODXL), and were negative for hematopoietic markers such as CD34 and CD45. A multipotent differentiation potential was examined, as described in a previous study; as a result, the adipose stem cells could be differentiated into adipocytes, osteocytes, and chondrocytes. The adipose stem cells were maintained at 37° C. in a humidified 5% CO2 incubator.
The adipose stem cells were seeded into 6-well plates and cultured to confluence. A sterile 1 ml pipette tip was used to scratch the cell monolayer. The cultures were then washed with PBS to remove de-plated cells, and the cells were again cultured with udenafil, or IL-4, and IL-12B in a serum-free medium for 3 days. Cell migration into the scratched area (wound closure) was visualized using a ZEISS™ Observer D1 microscope. Multiple images were acquired per well, and the average cell number within the wound was monitored over 3 days.

[3] = tested on: human adipose stem cells; assay: Cell growth assay (live cell number, trypan blue); assay type: cell-based; settings: 7 days; for proliferation of the adipose stem cells (live cell number): IL-4 or IL-12B 100 ng/ml, FIG. 7(A)
Procedure: as §3
For cell growth assay, the adipose stem cells were seeded in 12-well plates, with 5×10^3 cells/well, treated with udenafil (0.1, 0.5, or 1 μM), and incubated for 7 days. The adipose stem cells were also seeded in 12-well plates, with 1×10^4 cells/well, treated with a synthetic peptide of IL-4 or IL-12B (100 ng/ml), and incubated for 7 days. The cells were then trypsinized, stained with trypan blue (Sigma-Aldrich, MO, USA), and counted each day using a hemocytometer.

[4] = tested on: IL-4 mRNA; assay: qPCR of IL-4 expression level in udenafil-treated adipose stem cells; assay type: cell-based; settings: adipose stem cells treated with 1 μM udenafil for 3 to 4 days, versus non-udenafil-treated adipose stem cells (Control); FIG. 3
Procedure: as §1, §2

[5] = tested on: human adipose stem cells; assay: Tube formation assay using MATRIGEL; assay type: cell-based; settings: after 16 hours; FIG. 6(E)
Procedure: as §3, with “chondrocytes. […]” for “chondrocytes.”, “number of tubes was analyzed under” for “adipose stem cells were maintained at 37° C. in”, “ZEISS™ Observer D1 microscope.” for “humidified 5% CO2 incubator.”

[6] = tested on: human adipose stem cells; assay: Transwell migration assay; assay type: cell-based; settings: migration 1 day; for migration of the adipose stem cells, transwell migration assay: IL-4 or IL-12B treatment for 3 days, FIG. 7 (B to E)
Procedure: as §3
The adipose stem cells were seeded into 60 mm plates and treated with udenafil IL-4, or IL-12B for 3 days. The adipose stem cells starved for 1 day (1.5×10^4cells/well) were suspended in a serum-free medium and seeded on the upper side of transwell membrane inserts (BD Falcon, CA, USA), which was pre-coated with MATRIGEL™ (1/60 dilution, BD MATRIGEL™ matrix, CA, USA). The normal serum With FBS was added in the lower side thereof as a chemoattractant. […] The inserts were stained with […] solution (Sigma-Aldrich) for 20 minutes, and the cell number was analyzed under a ZEISS™ Observer D1 microscope. Multiple images (15 to 20) were acquired per insert, and the average cell counts were calculated.

[7] = tested on: C3H mice; assay: Hair growth effect of IL-4 or IL-12B peptide applied to dorsum of mice; assay type: in vivo, mouse; settings: 100 ng/ml applied to dorsum once a day for 13 to 14 days, FIG. 4; for maturation of hair follicle tissue: H&E staining
Procedure: Specifically, the dorsal hair of 6-week-old C3H mice was completely removed, and 100 ng/ml of an IL-4 peptide or an IL-12B peptide was applied to the dorsum of the mice once a day. It was identified whether the hair was growing while applying the IL-4 peptide or IL-12B peptide for 13 to 14 days. Then, a photograph was taken and the dorsal skin tissue was obtained.

[8] = tested on: dermal papilla cells (DP cells); assay: Growth of dermal papilla cells after treatment with IL-4 or IL-12B; assay type: cell-based; settings: FIG. 8
[9] = tested on: vibrissal hair follicle cells; assay: Vibrissal hair follicle culture, length of hair grown; assay type: cell-based, mouse; settings: 5 ng/ml or 20 ng/ml, 3 days culture, versus non-treated control; FIG. 5
Procedure: In addition, the vibrissal hair follicle of 5-week-old C57b1/6 mice was dissected to obtain hair follicle cells, and the hair follicle cells were transferred to 48-well plates. Then, treatment with 5 ng/ml or 20 ng/ml of an IL-4 peptide or an IL-12B peptide was performed and culture was performed for 3 days. After completion of the culture, the hair follicle tissue was photographed and a length of hair grown therefrom was measured.

Molecule	IL-12B mRNA expression level [1]	ASC migration, scratch wound-healing assay ([2]; udenafil in serum-free medium for 3 days, FIG. 6 (B to D))	growth of adipose stem cells (live cell number) ([3]; udenafil 0.1, 0.5 or 1 μM, FIG. 6(A))	IL-4 mRNA expression level [4]	number of nascent tubes (tube-forming activity) [5]	ASC migration, transwell migration assay ([6]; udenafil treatment for 3 days, FIG. 6 (B to D))	migration of the adipose stem cells, scratch wound-healing assay [2]	hair growth effect [7]	maturation of hair follicle tissue [7]	proliferation of the adipose stem cells (live cell number) [3]	growth of the DP cells [8]	length of hair grown from the hair follicle cells [9]	migration of the adipose stem cells, transwell migration assay [6]
CCCOc1ccc(S(=O)(=O)NCCC2CCCN2C)cc1-c1nc(=O)c2c([nH]1)c(CCC)nn2C (centres unmarked) [udenafil]	about 6 fold	increases ASC migration in both assays in a dose-dependent manner	increases growth of adipose stem cells in a time- and dose-dependent manner	about 4 fold	increases the number of nascent tubes	increases ASC migration in both assays in a dose-dependent manner							
B1							increase migration of the adipose stem cells in a dose-dependent manner	increased hair growth effect	significantly maturated	increases proliferation of the adipose stem cells in a time- and dose-dependent manner	increased growth of the DP cells	longer than that of the non-treated control	increase migration of the adipose stem cells in a dose-dependent manner
B2							increase migration of the adipose stem cells in a dose-dependent manner	increased hair growth effect	significantly maturated	not	increased growth of the DP cells	longer than that of the non-treated control	increase migration of the adipose stem cells in a dose-dependent manner
